Measurements as given in patent publication WO2005054294A2 (dated 2005).

Target: T1, human platelet glycoprotein VI (human, UniProt Q9HCN6 21-339)
T1 sequence (looked up): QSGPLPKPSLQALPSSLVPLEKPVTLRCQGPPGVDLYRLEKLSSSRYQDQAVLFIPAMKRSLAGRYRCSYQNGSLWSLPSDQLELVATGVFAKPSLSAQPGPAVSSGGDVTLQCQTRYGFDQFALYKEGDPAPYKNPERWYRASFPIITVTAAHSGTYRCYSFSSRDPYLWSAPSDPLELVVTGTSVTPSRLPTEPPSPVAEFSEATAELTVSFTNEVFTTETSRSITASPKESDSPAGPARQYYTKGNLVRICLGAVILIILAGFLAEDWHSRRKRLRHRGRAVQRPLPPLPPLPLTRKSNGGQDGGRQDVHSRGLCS
Assay: cell-based or functional assay

IC50 of inhibition of collagen-induced (3 ug/ml) human platelet aggregation ex vivo: 0.12 µg/mL
B1: hGP 5C4 Fab (Fab, V domains shown)
VH: EVKLQESGGGLVQPGRSLKLSCTASGFTFSDYFMSWVRQAPTRGLEWVASISSGGASAYWRDSVKGRFTISRDNAKSALYLQMDSLRSEDTATYFCARGELDFDYWGQGVMVAVSS
VL: ADPNSTLLSASVGDRVTLNCTASQNVYKNLAWYQQKLGEAPRLLLYSANSQTGIPSRFSGSGSGPDFTLTISSLQPEDVASYFCQQYYSGNTFGAGTKLELKR
